Source: publication PMC4145081 (2014)

Experiments:
[1] = biological target: human SCARB2 on 293A-hSCARB2 cells pretreated with PNGase F (human) (UniProt Q14108); experiment: flow cytometry on cells; binding of EV71 to 293A-hSCARB2 cells pretreated with or without PNGase F; details in the Extended Experimental Procedures
[2] = biological target: human SCARB2 on 293A-hSCARB2 cells pretreated with PNGase F (human) (UniProt Q14108)
[3] = biological target: EV71 mature virions (human enterovirus 71 (EV71))
[4] = biological target: EV71 mature virions (human enterovirus 71 (EV71)); remark: listed apart in the source
EV71 mature virions = biological target: T1, EV71 mature virions (human enterovirus 71 (EV71)); experiment: ITC
T1 chain 1: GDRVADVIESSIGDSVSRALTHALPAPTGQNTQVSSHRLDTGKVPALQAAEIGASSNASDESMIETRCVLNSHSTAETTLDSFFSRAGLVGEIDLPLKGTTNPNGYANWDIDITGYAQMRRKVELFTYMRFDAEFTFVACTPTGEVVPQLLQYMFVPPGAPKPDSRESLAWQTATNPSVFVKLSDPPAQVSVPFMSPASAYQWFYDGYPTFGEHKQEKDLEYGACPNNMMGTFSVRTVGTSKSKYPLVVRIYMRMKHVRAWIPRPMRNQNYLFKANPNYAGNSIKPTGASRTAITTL
T1 chain 2: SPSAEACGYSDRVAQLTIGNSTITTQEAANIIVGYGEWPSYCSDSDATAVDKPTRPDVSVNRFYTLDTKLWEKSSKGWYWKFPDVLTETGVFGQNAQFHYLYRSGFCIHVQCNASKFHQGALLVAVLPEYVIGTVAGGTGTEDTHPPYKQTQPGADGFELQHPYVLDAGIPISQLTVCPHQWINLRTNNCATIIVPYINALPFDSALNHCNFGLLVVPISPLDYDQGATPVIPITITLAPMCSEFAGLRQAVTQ
T1 chain 3: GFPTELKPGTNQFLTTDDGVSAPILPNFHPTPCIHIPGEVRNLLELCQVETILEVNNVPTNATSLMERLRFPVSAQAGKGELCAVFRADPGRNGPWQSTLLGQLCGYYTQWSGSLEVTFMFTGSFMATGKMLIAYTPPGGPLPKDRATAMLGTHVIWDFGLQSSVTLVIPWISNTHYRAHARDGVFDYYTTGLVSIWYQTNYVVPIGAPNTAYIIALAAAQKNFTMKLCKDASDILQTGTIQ
T1 chain 4: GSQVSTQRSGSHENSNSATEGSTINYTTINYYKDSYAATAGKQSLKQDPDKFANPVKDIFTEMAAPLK

Sequence of human SCARB2 on 293A-hSCARB2 cells pretreated with PNGase F (human) (Q14108 whole entry): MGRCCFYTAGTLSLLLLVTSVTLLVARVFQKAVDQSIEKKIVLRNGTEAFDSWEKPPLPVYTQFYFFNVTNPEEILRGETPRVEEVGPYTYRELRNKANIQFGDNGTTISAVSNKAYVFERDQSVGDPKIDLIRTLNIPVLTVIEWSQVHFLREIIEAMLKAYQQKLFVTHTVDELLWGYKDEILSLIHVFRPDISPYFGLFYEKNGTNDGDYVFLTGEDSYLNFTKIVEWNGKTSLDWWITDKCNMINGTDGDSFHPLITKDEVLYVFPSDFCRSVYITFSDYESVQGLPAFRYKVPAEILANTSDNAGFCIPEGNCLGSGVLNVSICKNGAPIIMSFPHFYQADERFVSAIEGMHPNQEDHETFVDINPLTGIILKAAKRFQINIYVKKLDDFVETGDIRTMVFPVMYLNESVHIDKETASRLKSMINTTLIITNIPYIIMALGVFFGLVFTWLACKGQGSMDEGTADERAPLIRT

EV71 mature virions (complex) gave a reduction of binding against untreated cells [1] of 30% and a decrease in infection efficiency of EV71-GFP on 293A-hSCARB2 cells pretreated with PNGase F, against untreated cells (GFP-positive cells 16 h post infection) [2] of 40%.

“recombinant SCARB2-His-tag protein (ectodomain of scavenger receptor class B 2)” gave a [3H]-labeled sphingosine removed from EV71 mature virions by excess recombinant SCARB2 (60:1) at pH 5.0, 37°C, 1-4 h [3] of 90% and a conversion of mature virions (~160 S) into ~125 S particles (A particles) by sedimentation velocity AUC after 1 h at 37°C with SCARB2 at pH 7.4 [4] of 5%.

B1: synthesized peptide of SCARB2 (aa 146-166) (peptide)
peptide: WSQVHFLREIIEAMLKAYQQK
With B1 the Kd (EV71 mature virions) was 4.2 µM.
